In article PMC5874619, “Enzymatic Preparation of 2,5-Furandicarboxylic Acid (FDCA)—A Substitute of Terephthalic Acid—By the Joined Action of Three Fungal Enzymes” (Microorganisms, 2018) one finds Km, kcat and kcat/Km data, which are given here for two molecules.

Test in all cases: HPLC, varied substrate, Michaelis-Menten plot
One data set concerns T1, PostAAO.
T1 construct: gene aao
It counts as biochemical, Pleurotus ostreatus.

Substrate in data set [1]: O=Cc1ccc(C=O)o1
It counts as biochemical, Cyclocybe aegerita. Particulars: pH 6.0.

Substrate in data set [2]: O=Cc1ccc(CO)o1
It counts as biochemical, Cyclocybe aegerita. Particulars: pH 6.0.

For the molecule `O=Cc1ccc(CO)o1` [HMF, 5-hydroxymethylfurfural], the Km (commonly the concentration of substrate that gives half-maximal velocity) in the data set on PostAAO came out at 7.2 mM.

B1: (Cyclocybe aegerita) (protein)
chain: EPGLPPGPLENSSAKLVNDEAHPWKPLRPGDIRGPCPGLNTLASHGYLPRNGVATPVQIINAVQEGLNFDNQAAVFATYAAHLVDGNLITDLLSIGRKTRLTGPDPPPPASVGGLNEHGTFEGDASMTRGDAFFGNNHDFNETLFEQLVDYSNRFGGGKYNLTVAGELRFKRIQDSIATNPNFSFVDFRFFTAYGETTFPANLFVDGRRDDGQLDMDAARSFFQFSRMPDDFFRAPSPRSGTGVEVVIQAHPMQPGRNVGKINSYTVDPTSSDFSTPCLMYEKFVNITVKSLYPNPTVQLRKALNTNLDFFFQGVAAGCTQVFPYGRD
Turning to B1, in data set [1], the Km was determined as 0.82 mM; the kcat – broadly, the number of substrate molecules converted per active site and unit of time at saturation – is 29.2 s⁻¹; the kcat/Km (in general, the turnover number divided by the Michaelis constant) was 35600 M⁻¹ s⁻¹. In data set [2], the Km was determined as 6.07 mM, the kcat came to 222 s⁻¹ and the kcat/Km turned out to be 36600 M⁻¹ s⁻¹.
